Article PMC6497169 (Nature microbiology, 2017)

B1: DotL(590–783)–DotN–IcmSW–LvgA with the (His)10-MBP tag on DotL(590–783) (complex)
chain 1: VEPPPDDYLMKLQKQLASFQSILESGDLSINKAVENEEITLISKALKESTIVEPIERGVAALIAFHGQNEPEPVEDIVEEEVEGALTIFSKLRIDPNAPPILVADKEVFSEPLLPINETRNQMITIERLAGAKDKYAGTVANELIKDFQIATSYPPEERDVIDVQELTGIIRDLSAKISAEREKANKKAAEELT
chain 2: MADNQQRCELKLIASPGSWRLYSARKIDERFKSYEQKIFQRDRYTCQFCGFQARLYQDIVNLDGDYTNNRLSNLVTACCFCAQCFFVESVGVGGYGGGTLIYLPELTQAELNSLCHVLFCAITNDTGYKSSAQNIYRSFKFRSQIVEEKFGEGTSDPAIFGQLMIDSGVNSEEIREKLFKNIRLLPSRAKFRKQIEKWAASALEEIAD
chain 3: MERDISKCMAKIAASMNAKFYLNDRFVSFDEVFSETGLLPAIAKRADQLCSLCLGYGLGATYDESEGALLGIRVVFDEVTPNVLRLLCMTDVMNELIQGGPSRDYTPLDELMYD
chain 4: MPDLSHEASAKYWFEYLDPMIYRVITFMESVENWTLDGNPELEEAMKQLGQELDDIEKIDLGLLAEEDKFIRIVGNIKSGRGLRLLQAIDTVHPGSASRVLIHAEETSLSSSDPAGFFLKRNIVFERLRLLSRVFCQYRLKLVLRALEGDE
chain 5: MADGDIEIKAGFVDTDLDDRKLTMIDDLNNPLAIVERVYLIWWHWADFHLHVISPHIDTITPAIVIEPELIPGSNDHEFVYSIHDSGSKLSTSKSQDMFSAGMSMCKLFYTIEKMVYILVERLKSGGVSMEAEVQIAFAGHEIAQRKAFESIINLPYNVVVTNFDPGIWGEKYLQNVKRLADKGYGYPPESPRKIYMHPVSSGTTARK
B2: SetA (natural protein)
chain: MYKIYSYLGWRIDMKTENLPQAGQEAQIDKKIHFIWVGHIMPQKNIQVVSEWAEKNPGYETIIWVDKKIAPAKELDLFILDMKSKGITVKDINEEGVCRDSIRHELDQESPNYGMVSDMLRLNILAAEGGIYLDSDILCSAPFPDEIYAPFGFLLSPWSQGANNTLCNDIILCSKGNQIIQQLADAIEQSYIARDSFEFTHEYASMKETKGERIAKTLGVTGPGFLFHQLKKMGILNDKSEMEAIHWELQDQRYLIDGSVKEPDYFYVPQNNTNDASWVPSIKRPGIENMSFQERLENAVQLIAFDIQKTGLFNLDHYANELKVKQNSWCIAAETSPELKPDSYLLIRPRDKTGEWTLYYVDEDKKLNPVTLPVIKGAIKLSEVSDPLRKFHTLLSQVSDPVNPTAHELKQIGRALIELKPRQDEWHCKNKWSGAEEIAQELWQRITSNETLRAQIKQCFTQFESLKPRVAELGLTRASGAGTEVEAHESTVKEQEIISQNTVGEEGTKEKNSVQLASENSSDEKIKTAHDLIDEIIQDVIQLDGKLGLLGGNTRQLEDGRVINIPNGAAMIFDDYKKYKQGELTAESALESMIKIAKLSNQLNRHTFFNQRQPETGQFYKKVAAIDLQTTIAAEYDNNHGLRI

How the values were obtained:
VpdB = VpdB (L. pneumophila, UniProt Q5ZW60 1-598); experiment: BLI
[1] = molecular target: B1; experiment: BLI

Binder | Kd (VpdB) [nM] | koff (VpdB) [s⁻¹] | kon (VpdB) [M⁻¹ s⁻¹] | Kd [1] [nM] | koff [1] [s⁻¹] | kon [1] [M⁻¹ s⁻¹]
B1 | ~332 | 0.0039 | 11800 |  |  | 
B2 |  |  |  | 1600 | 0.0203 | 13100
